33 sequences from the supplement of paper PMC9170038 can be followed below.

This data set concerns MS2 coat protein. Briefly: apparent KD of MS2 coat protein; designed switch direction (-1 OFF switch, 1 ON switch): -1; higher = weaker reporter binding. A digest of the protocol: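 RNA switches sharing common flanks were transcribed by stalled E. coli RNA polymerase on Illumina chips. A doubling series of SNAP-549-labelled MS2 coat protein, from 0.7 or 1.5 nM to 3 µM, was applied in Tris-HCl pH 7.5 buffer with KCl, MgCl2, BSA, DTT, tRNA and Tween-20. Each step lasted 0.8–1.5 h at the bottom of the series and 10–20 min at the top. Normalised cluster fluorescence was curve-fitted, giving apparent KD as the per-design median over clusters.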

[1] abbreviates: Eterna round: R95, input ligand: microRNA oligo, concentration not stated.
[2] abbreviates: input ligand: microRNA oligo, concentration not stated.
The mark [3] stands for this setting: Eterna round: R95, input ligand: FMN 200 uM.
Where [4] appears, read: Eterna round: R95, input ligand: none.

Regarding “CCGAAACAUGAGGAUCACCCAUGUGAGGAUAUGAGCGUCUAGUUGAGAGAUUGGACGCUCAGAAGGCACAAAGG [JR_Ex1_Sub074] (Eterna round: R97, puzzle: Exclusion 1)”, the “apparent KD of MS2 coat protein” value amounted to 105 nM (input ligand: FMN 200 uM) and 35.5 nM (input ligand: none). Taken in the same sequence, the figures for “CCGAAGCUAGGAUAUACAUGAGGAUCACCCAUGUAAUCUCAUUUACGGGUCGGGCGCAGUAGAAGGAGCAAAGU [EX3 B.17] (Eterna round: R97, puzzle: Exclusion 3)” were 17.5 nM and 15.6 nM. Turning to “CCGAAUAAGCAGGAUAUCGAAUCGGAGACGAUUCGAGAAGGGUUAACAUGAGGAUCACCCAUGUUCCUUAACGG [Mat - Exclusion 6 - Eli Mod - D79] (puzzle: Exclusion 6)”, under setting [1], the “apparent KD of MS2 coat protein” value is 17.3 nM. Still for that read-out and setting: the figure for “CCGAAUAUGCAGGAUAUCGUAUAGGAAACUAUACGAGAAGGGUAAACAUGAGGAUCACCCAUGUUCCUUAACGG [Mat - Exclusion 6 - Eli Mod - D81] (puzzle: Exclusion 6)” is 20.3 nM. The same measure, in the same setting: under “CCGAAUAUGCAGGAUAUCUUAUCGGAAACGAUAAGAGAAGGGUAAACAUGAGGAUCACCCAUGUUCCUUAACGG [Mat - Exclusion 6 - Eli Mod - D80] (puzzle: Exclusion 6)” stands 18.9 nM. Consider “CCGAGGUGGCGGUCCUAUGACAUGAGGAUCACCCAUGUACCUCGCCACAAGCUCUUUGCUCAUCUUAUAGUUCUCGG [Onlaor] (Eterna round: R96, puzzle: Sensor v3, turn-off variant 1)”, for which the “apparent KD of MS2 coat protein” value by setting is: (input ligand: FMN 200 uM) 19.9 nM; under setting [2], 132 nM; (input ligand: none) 24.5 nM. Regarding “CCGAGGUGGCGGUCCUAUGACAUGAGGAUCACCCAUGUACCUCGCCACAAGCUCUUUGCUCAUCUUAUAGUUCUCGG [Onlaor] (puzzle: Sensor v3, turn-off variant 1)”, the “apparent KD of MS2 coat protein” value runs as follows: under setting [3], 18.6 nM; under setting [1], 124 nM; under setting [4], 17.9 nM. Taken in the same sequence, the figures for “CCGAGGUGGCGGUCCUAUGACAUGAGGAUCACCCAUGUACCUCGCCACGAGCCUUUUGCUCAUCUUAUAAUUCUCGG [Bienve] (puzzle: Sensor v3, turn-off variant 1)” were 17.4 nM, 20.6 nM and 17.2 nM.

As for “CCGCAAAAGCAGGAUAUCGUAUCGGAAACGAUACGAGAAGGGUUUACAUGAGGAUCACCCAUGUUCCUUAGCGG [Mat - Exclusion 6 - Eli Mod - D101] (puzzle: Exclusion 6)”, the “apparent KD of MS2 coat protein” value under setting [1] was 28.7 nM. For the sequence “CCGCAAAAGGAGGAUAUCGUAUCGGAUACGAUACGAGAAGGCCUAACAUGAGGAUCACCCAUGUGUCCUAGCGG [Fiskers Ex 6 - 36] (puzzle: Exclusion 6)”, the “apparent KD of MS2 coat protein” value reads like this: under setting [3], 23.8 nM; under setting [1], 14.8 nM; under setting [4], 14.5 nM. As to “CCGCAAAUGGAGGAUAUCGUAUCGGAGACGAUACGAGAAGGCCAAACAUGAGGAUCACCCAUGUGUCCUAGCGG [Mat - Exclusion 6 - Eli Mod - D102] (puzzle: Exclusion 6)”, the “apparent KD of MS2 coat protein” value under setting [3] turned out to be 29.3 nM, the “apparent KD of MS2 coat protein” value under setting [1] stood at 15.1 nM and the “apparent KD of MS2 coat protein” value under setting [4] turned out to be 16 nM. For the sequence “CCGCAGUGAGGAUAUUGUCAUAGACGGUGUGAAUCACGGGACAAGAAGGUACAUGAGGAUCACCCAUGUGGGUG [Eternabot (L1) Solution 1] (Eterna round: R97, puzzle: Exclusion 4)”, the “apparent KD of MS2 coat protein” value was 54.3 nM (input ligand: FMN 200 uM) and 1560 nM (input ligand: none). Take “CCGCAUAAGCAGGAUAUCGUAUCGGAUACGAUACGAGAAGGGUUUACAUGAGGAUCACCCAUGUUCCUUAGCGG [Fiskers Ex 6 - 31] (puzzle: Exclusion 6)”: under setting [1], the “apparent KD of MS2 coat protein” value turned out to be 26.2 nM. On to “CCGCAUGCUGUCAGGAUAUCGUAGAUAAUAAUAUGCGAGAAGGGACAUGAGGAUCACCCAUGUAAGAGGCGGCC [Design for Riboswitch] (puzzle: Brourd's mod of Exclusion 4)”, for which the “apparent KD of MS2 coat protein” value under setting [1] worked out at 24.4 nM. “CCGCUCCGUGUAGGAUAUUGGCGUGCCCUGCGCCGAGAAGGACAUGAGGAUCACCCAUGUAUGUUAUUAUCACGCGUGGCGCAC [Design 76] (Eterna round: R96, puzzle: Exclusion NG 1)”: the “apparent KD of MS2 coat protein” value stood at 15.9 nM (input ligand: FMN 200 uM), 12.9 nM under setting [2] and 17 nM (input ligand: none). Take “CCGCUGCAAGGAUAUACUUGCGGUGGUGCUCGAGUUCUUCUACUUGAGGAUCACCCAAGUAGAAGGUGCAAAAC [jl-ex2.4.57 ViennaUCT mod] (Eterna round: R97, puzzle: Exclusion 2)”: the “apparent KD of MS2 coat protein” value came out at 34.4 nM (input ligand: FMN 200 uM) and 17.1 nM (input ligand: none). Take “CCGGAAAGGAAGGAUAUGCUAGACGAGAGUCUAGCAGAAGGUCCUACAUGAGGAUCACCCAUGUGUCCUACCGG [Mat - Exclusion 6 - Eli Mod - D38] (Eterna round: R97, puzzle: Exclusion 6)”: the “apparent KD of MS2 coat protein” value came out at 69.6 nM (input ligand: FMN 200 uM) and 79.8 nM (input ligand: none). As to “CCGGAAAGGAAGGAUAUGCUUGACGAAAGUCAAGCAGAAGGUCCUACAUGAGGAUCACCCAUGUGGCCUCCCGG [Mat - Exclusion 6 - Eli Mod - D48] (Eterna round: R97, puzzle: Exclusion 6)”, the “apparent KD of MS2 coat protein” value stood at 737 nM (input ligand: FMN 200 uM) and 128 nM (input ligand: none). On to “CCGGAAAUAGAGGAUAUAGUACUGGAUACAGUACUAGAAGGCUAUACAUGAGGAUCACCCAUGUGUCCUACCGG [Fiskers Ex 6 - 62] (puzzle: Exclusion 6)”, for which the “apparent KD of MS2 coat protein” value under setting [1] is 13.9 nM. As for “CCGGAAAUAGAGGAUAUCGUACUGGAUACAGUACGAGAAGGCUAUACAUGAGGAUCACCCAUGUGUCCUACCGG [Fiskers Ex 6 - 61] (puzzle: Exclusion 6)”, the “apparent KD of MS2 coat protein” value under setting [1] stood at 16.1 nM. On the same count and under the same terms, the figure for “CCGGAAAUGAAGGAUAUAGGAGUCGAUAGACACCUAGAAGGUCAUACAUGAGGAUCACCCAUGUGUCCUACCGG [Fiskers Ex 6 - 78] (puzzle: Exclusion 6)” is 14.9 nM; for “CCGGAAAUGGAGGAUAUCGUAUCGGAUACGAUACGAGAAGGCUAUACAUGAGGAUCACCCAUGUGUCCUACCGG [Fiskers Ex 6 - 5] (puzzle: Exclusion 6)” it is 12.6 nM. Consider “CCGGAACAUGAGGAUCACCCAUGUCAGGAUAUGAAUAAAUCGUCGAAAGACGAUAAUCUCAGAAGGGACACCGG [Eli 4.28] (Eterna round: R97, puzzle: Exclusion 1)”, for which the “apparent KD of MS2 coat protein” value is, setting by setting: (input ligand: FMN 200 uM) 22.7 nM; (input ligand: none) 19.6 nM. In the case of “CCGGAAGUACAGGAUAUCGUAUCGGAUACGAUACGAGAAGGGUAUACAUGAGGAUCACCCAUGUGUCCUACCGG [Fiskers Ex 6 - 55] (puzzle: Exclusion 6)”, the “apparent KD of MS2 coat protein” value under setting [1] was 19.6 nM. Regarding “CCGGAUUAGGAGGAUAUAGGAGUCGAUAGACACCUAGAAGGCCUGACAUGAGGAUCACCCAUGUGUCCUACCGG [Mod of Eli 17 - Jieux - Exclusion 6] (Eterna round: R97, puzzle: Exclusion 6)”, the “apparent KD of MS2 coat protein” value (input ligand: FMN 200 uM) amounted to 48.6 nM and the “apparent KD of MS2 coat protein” value (input ligand: none) came out at 22.9 nM.

Regarding “CCGGCUUACUAGGAUAUCAGAGUCGAAAGACUCUGAGAAGGAGUAACAUGAGGAUCACCCAUGUGUCCUACCGG [Mod of Eli 9 - Jieux - Exclusion 6] (Eterna round: R97, puzzle: Exclusion 6)”, the “apparent KD of MS2 coat protein” value is 113 nM (input ligand: FMN 200 uM) and 29.5 nM (input ligand: none). With “CCGGCUUAGGAGGAUAUAGGAGUCGAUAGACACCUAGAAGGCCUGACAUGAGGAUCACCCAUGUGUCCUACCGG [Fiskers Ex 6 - 98] (puzzle: Exclusion 6)”, the “apparent KD of MS2 coat protein” value reads like this: under setting [3], 31.1 nM; under setting [1], 14.2 nM; under setting [4], 16.5 nM. Consider “CCGGGUUAUGUUAGGAUAUGUAGGCCGCAACCGGAACAGAAGGGACAUGAGGAUCACCCAUGUGAUAUUCCCGG [Onxexe] (puzzle: Brourd's mod of Exclusion 4)”, for which the “apparent KD of MS2 coat protein” value under setting [1] is 17.5 nM. In the case of “CCGGUUGGCGCAGGAUAUACAUGAGGAUCACCCAUGUUCAUCAGGAUCACCGAUGAGUUUUUGUUGUAGAAGGGUGGCCCGGCC (Eterna round: R96, puzzle: Exclusion NG 2)”, the “apparent KD of MS2 coat protein” value under setting [2] worked out at 24.2 nM.

On to “CCGGUUGGCGCAGGAUAUACAUGAGGAUCACCCAUGUUCAUGAGGAUCAUCCAUGAGUUUUUGUUGUAGAAGGGUGGCCCGGCC (Eterna round: R96, puzzle: Exclusion NG 2)”, for which the “apparent KD of MS2 coat protein” value reads like this: (input ligand: FMN 200 uM) 117 nM; under setting [2], 60.8 nM; (input ligand: none) 98.4 nM. In the case of “CCGUGCAGGCUGCGGUCCUACAUGAGGAUCACCCAUGUGGUCCGGUGGCGUGGGUCGCCGGACUUGGCUCGUCUUGU [salish99_S_TOV1_R5_016] (Eterna round: R97, puzzle: Sensor, turn-off variant 1)”, the “apparent KD of MS2 coat protein” value (input ligand: FMN 200 uM) was 75.1 nM and the “apparent KD of MS2 coat protein” value (input ligand: none) was 86.3 nM. As for “CCGUUCCGUGUAGGAUAUUGGCCUUCCUCGGGCCGAGAAGGACAUGAGGAUCACCCAUGUAUGCUAUUAUCGCGCGUGGCGCAC [Design 97] (Eterna round: R96, puzzle: Exclusion NG 1)”, the “apparent KD of MS2 coat protein” value was determined as 158 nM (input ligand: FMN 200 uM), 22.6 nM under setting [2] and 39.1 nM (input ligand: none).

As to “CCUAAGAAAGGAUAUACACCGGUGGGCCGCUGAAUUCAGCAACAUGAGGAUCACCCAUGUAGAAGGUUUAUGGG [Veteso] (Eterna round: R96, puzzle: Exclusion 2)”, the “apparent KD of MS2 coat protein” value by setting is: (input ligand: FMN 200 uM) 346 nM; under setting [2], 147 nM; (input ligand: none) 262 nM.
